# Experimental data: article PMC11162469, “Discovery of RXFP2 genetic association in resistant hypertensive men and RXFP2 antagonists for the treatment of resistant hypertension” (Scientific Reports, 2024)
# Changes are numbered by the printed parent chain.
# T1: linker-less human LDLa peptide (Q8WXD0 43-80) (Homo sapiens, UniProt Q8WXD0, not fully specified)
# T1 construct: relaxin family peptide receptor 2 (RXFP2), human, LDLa module without the linker, residues 43-80; also called LDLa linker-less domain
# T1 chain: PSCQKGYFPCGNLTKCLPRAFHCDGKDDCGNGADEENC
# B1: RXFP2 mAb 4B1 (antibody, V domains shown)
# VH: QVQLQQSGAELVRPGSSVRISCKASGYAFSNSWINWVKQRPGQGLEWMGQIYPGDGNTNYNGRFKDKATLTADKSSSTAYMQLSSLTSEDSAVYFCARDHNYWGQGTTLTVSS
# VL: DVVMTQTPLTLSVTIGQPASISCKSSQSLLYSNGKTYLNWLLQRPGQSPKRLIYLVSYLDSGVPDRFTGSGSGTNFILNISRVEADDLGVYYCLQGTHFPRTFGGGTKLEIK
# notes: heavy chain variable domain; rat IgG2b heavy chain constant region (rat IgG2b backbone, in-house construct); Recombinant in a rat IgG2b backbone; found as a mouse hybridoma clone; source: Expi293, transfected, purified (Protein G)
# B2: RXFP2 mAb 4G6 (antibody, V domains shown)
# VH: EVQLQQSGPELVKPGASVKLSCKASGYTFTSYVMHWVKQKPEQGLEWIGYKNPSNDGIKYNEKFKGKATLTSDKSSNIAYMELFSLTSEDSAVYYCARSDFGSVWAMDYWGQGTSVTVSS
# VL: SIVMTQTPKFLLVSAGDRVTITCKASQSVNDDIVWYQQKPGQSPKLLIYYASNRYTGVPDRFTGSGYGTDFTFTISTVQAGDLAVYFCQQDYSSPFTFGSGTKLEIK
# notes: as for B1
# B3: RXFP2 mAb 1G1 (antibody, V domains shown)
# VH: EVQLQQSGPELVKPGASVKMSCKASGYTFTDYNMHWVKQKPGQGLEWIGYINPYNDGTEYNEKFKGKATLTSDKSSSTAYMDLSSLTSEDSAVYYCARGLWFAMNYWGQGTSVTVSS
# VL: DIQMTQSSSSFSVSLGDRVTITCKASEDIYNRLAWYQQKPGNTPRLLISGATILETGVPSRFSGSGSGKDYTLSIISLQTEDVATYYCQQYWIIPPTFGGGTKLEIK
# notes: as for B1
# B4: RXFP2 mAb 3F3 (antibody, V domains shown)
# VH: QVQLQQPGSVLVRPGASVKLSCKASGYIFTSYWMHWVKQRPGQGLEWIGEIYPNSGRTSYNEKFKGKATVTVDTSSSTAYVDLSSLTSEDSAVYYCASGGHWFAYWGQGTLVTVSA
# VL: B3 VL with T43A, I53S, T56A, I76T, A84S, I94T, P96Y
# notes: as for B1
# B5: RXFP2 mAb 4H1 (antibody, V domains shown)
# VH: QIQLVQSGPELKKPGETVKISCKTSGYTFTKYPMHWVKQAPGEGLKWMGWINTYSGLPTFADDFKGRFAFSLETSANTADLQINNLKNEDMATYFCAREGKKLSGYFDYWGQGTTLTVSS
# VL: DIKMTQSPSSMYASLGERVTITCKASQDINSYLTWFQQKPGQSPKTLIYRANRFVDGVPSRFSGSGSGQDYSLTITSLEYEDMGIYYCLQYDEFPYTFGGGTQLEIK
# notes: as for B1
# B6: RXFP2 mAb 4F6 (antibody, V domains shown)
# VH: EVQLQQSGPELVKPGASVKMSCKASGYTFTNYVLHWVKQKPGQGLEWIGYINPYNDGSKYNEKFKGRATLTSDKSSSTAYMELSSLTSEDSAVYYCARGGWLLDYFDYWGQGTTLTVSS
# VL: DVLMTQSPLSLPVSLGEQASISCRSSQSIVHSDGDTYLEWYLQKPGQSPNLLIYKVSNRFSGVPDRFSGSGSGTDFTLKISRVEAEDLGVYYCFQGSHVPPTFGGGTKLEIK
# notes: as for B1
# B7: RXFP2 mAb 1F2 (antibody, V domains shown)
# VH: QVQLKQSGPGLVQPSQSLSITCTVSGFSLTAYGVNWVRQSPGKGLEWLGVIWSGGNTDYNAPFISRLSITKDNSKSQVFFKMNSLEADDTAIYYCARAKGYYAMDYWGQGTSVTVSS
# VL: DIQMTQSPASLSVSVGESVTITCRATENIYSNLVWYQQKQGQSPQLLVYAVTSLADGVPSRFSGSGSGTQYSLKINSLQSEDFGTYYCQHFWGTPYTFGGGTKLEIK
# notes: as for B1
# B8: RXFP2 mAb 4H2 (antibody, V domains shown)
# VH: QVQLRQSGPSLVQPSQSLSITCTVSGFSLTNYGVHWVRQSPGKGLEWLGVIWRGGNTDHNAAFMSRLSITKDNSESQVFFKMNSLQVDDTAIYYCAKAEGYYALDYWGQGTSVTVYS
# VL: B7 VL with S18T, T26S, V34A, Q42K, S53N, T85S, Y96W
# notes: as for B1
# B9: RXFP2 mAb 3F1 (antibody, V domains shown)
# VH: QVQLKESGPGLVAPSQSLSITCTVSGFSLTDYGVSWIRQPPGKGLEWLGVIWGGGSTDYNPALKSRLSISKDNSKSQVFLKMNSLQADDTAMYYCVKHEGYYAMDYWGQGTSVTVSS
# VL: B7 VL with S18T, T26S, V34A, Q42K, Q45H, S53N, T85S
# notes: as for B1
# B10: RXFP2 mAb 3H1 (antibody, V domains shown)
# VH: QVQLKETGPGLVAPSQSLSITCTVSGFSLTNYGVNWVRQPPGKGLEWLVVIWSDGSTNYNSALKSRLSISKDNSKSQVFLKMNSLQTDDTAMYYCARQQGYYAMDYWGQGTSVIVSS
# VL: B7 VL with S18T, T26S, V34A, Q42K, S53N, T85S, T94P
# notes: as for B1
# B11: RXFP2 mAb 4B8 (antibody, V domains shown)
# VH: QVQLKQSGPGLVQPSQSLSITCTVSGFSLSRYGVHWVRQSPGKGLEWLGVIWSGGSTEYNAVFKSRLSISKDNSKSQVFFKMNSLQANDTAIYYCVRADGYYAMEYWGQGTSVTVSS
# VL: B7 VL with S18T, T26S, V34A, Q42K, S53N, T85N
# notes: as for B1
# B12: RXFP2 mAb 4H5 (antibody, V domains shown)
# VH: QVQLKQSGPGLVQPSQSLSITCTVSGFSLTNYGVHWVRQSPGKGLEWLGVIWRDGNTDYNAAFMSRLSITKDNSKSQVFFEMNSLQVDDTAIYYCCRGDGYYAMGYWGQGTSVTVSS
# VL: B7 VL with S18T, T26S, V34A, K39R, Q42R, V51A, S53N, T85N, T94S, Y96R
# notes: as for B1
# B13: RXFP2 mAb 2D4 (antibody, V domains shown)
# VH: QVQLKESGPGLVAPSQSLSITCTVSGFSLTTYGISWVRQPPGKGLEWLGVIWTGGGTNYNSALKSRLSISKDNSKSQVFLKMNSLQTDDTARYYCARTEGYYVMDYWGQGTSVTVSS
# VL: B7 VL with S18T, T26S, Q42K, V51A, S53N, S77N, T94P, Y96W
# notes: as for B1
# B14: RXFP2 mAb 3G4 (antibody, V domains shown)
# VH: QVQLKESGPGLVAPSQSLSITCTVSGFSLTSYGVSWVRQPPGKGLEWLGVIWGDGSTNYHSALISRLSISKDNSKSQVFLKLNSLQTDDTATYYCAKSLGYYAMDYWGQGTSVTVSS
# VL: B7 VL with S18T, T26S, Q42K, V51A, S53N, D56E, T85S, T94P, Y96W
# notes: as for B1
# B15: RXFP2 mAb 4A5 (antibody, V domains shown)
# VH: DVQLVESGGGLVQPGGSRKLSCAASGFTFSTFGMHWVRQAPEKGLEWVAYISSGSSTIYYADTVKGRFTISRDNPKNTLFLQMTSLRSDDTAMYYCSRSYYGSAHYFDYWGQGTTLTVSS
# VL: DIQMTQSPASLSVSVGETVTITCRASENIYSNLAWYQQKQGKSPQLLVYVATNLADGVPSRFSGSGSGTQYSLRINNLQSEDFGNYYCQHFWGTPPTFGGGTKLEIK
# notes: as for B1
# B16: RXFP2 mAb 4G7 (antibody, V domains shown)
# VH: EVKLVESGGGLVQPGASLRLSCATSGFTFTDYYMSWVRQPPGKALEWLGFIRNKATGYTTEYSASVKGRFTISRDNSQSILYLQMNTLRAEDSATYYCARDLYYGDWYFDVWGAGTTVTVSS
# VL: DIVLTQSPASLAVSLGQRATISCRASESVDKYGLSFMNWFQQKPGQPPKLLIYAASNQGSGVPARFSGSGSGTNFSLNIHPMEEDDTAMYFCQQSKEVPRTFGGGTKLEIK
# notes: as for B1
# B17: RXFP2 mAb 2H3 (antibody, V domains shown)
# VH: QVTLKESGPGILQPSQTLSLTCSFSGFSLSTSGMSVGWIRQPSGKGLEWLAHIWWNDDKYYNPALKSRLTISKDTSNNQVFLKIASVVTADTATYYCARIGYYDGSPHAMDYWGQGTSVTVSS
# VL: not shown
# notes: as for B1
# Target: T2, rat LDLa-linker protein (ratRXFP2-LDLa-linker(20-88)) (Rattus norvegicus, UniProt Q5ECL0)
# T2 construct: relaxin family peptide receptor 2 (RXFP2), rat, LDLa module and linker, residues 20-88; Expressed as LDLa-linker, enterokinase site, rat Fc, 8xHis; The Biacore methods say only 'LDLa-linker protein'; also called rat LDLa-linker domain; source: Expi293, transfected, purified (Histrap excel, SEC); enterokinase digestion, Hispur Ni resin, Superdex 200; not shown: rat Fc, C-terminal, cleaved; 8xHis, …
# T2 sequence (Q5ECL0 entry or part of it): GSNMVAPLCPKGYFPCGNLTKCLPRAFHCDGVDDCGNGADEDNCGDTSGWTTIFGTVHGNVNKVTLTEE
# Test: SPR; Biacore S200; goat anti-rat Fc gamma immobilised on a Series S CM5 chip, purified recombinant rat anti-RXFP2 antibodies captured at 5 µg/mL; rat or human LDLa-linker protein flowed as analyte at 20, 10, 5, 2.5, 1.75 and 0 nM; 1:1 fit model
# Conditions: both partners purified
row,Binder,Kd
1,B1,1.97 nM
2,B2,0.21 nM
3,B3,0.18 nM
4,B4,11.4 nM
5,B5,1.01 nM
6,B6,1.7 nM
7,B7,0.69 nM
8,B8,0.32 nM
9,B9,1.24 nM
10,B10,1.89 nM
11,B11,0.55 nM
12,B12,0.35 nM
13,B13,0.52 nM
14,B14,2.07 nM
15,B15,4.23 nM

# Target: T3, human LDLa-linker protein (huRXFP2-LDLa-linker(38-105)) (Homo sapiens, UniProt Q8WXD0)
# T3 construct: relaxin family peptide receptor 2 (RXFP2), human, LDLa module and linker, residues 38-105; Expressed as LDLa-linker, enterokinase site, rat Fc, 8xHis; The Biacore methods say only 'LDLa-linker protein'; also called human LDLa-linker domain; source: Expi293, transfected, purified (Histrap excel, SEC); enterokinase digestion, Hispur Ni resin, Superdex 200; not shown: rat Fc, C-terminal, cleaved; …
# T3 sequence (Q8WXD0 38-105): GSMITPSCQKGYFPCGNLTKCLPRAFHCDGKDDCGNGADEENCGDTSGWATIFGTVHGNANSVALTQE
# Test: as above
# Conditions: both partners purified
Binder,binding result,Kd
B16,no binding (tested: 20 nM (highest analyte concentration)),
B1,,2.75 nM
B2,,2.91 nM
B3,no binding (tested: 20 nM (highest analyte concentration)),
B4,no binding (tested: 20 nM (highest analyte concentration)),
B17,no binding (tested: 20 nM (highest analyte concentration)),
B5,no binding (tested: 20 nM (highest analyte concentration)),
B6,,11.7 nM
B7,no binding (tested: 20 nM (highest analyte concentration)),
B8,no binding (tested: 20 nM (highest analyte concentration)),
B9,no binding (tested: 20 nM (highest analyte concentration)),
B10,no binding (tested: 20 nM (highest analyte concentration)),
B11,no binding (tested: 20 nM (highest analyte concentration)),
B12,no binding (tested: 20 nM (highest analyte concentration)),
B13,no binding (tested: 20 nM (highest analyte concentration)),
B14,no binding (tested: 20 nM (highest analyte concentration)),
B15,no binding (tested: 20 nM (highest analyte concentration)),

# Target: T1, linker-less human LDLa peptide (Q8WXD0 …)
# Test: ELISA; human LDLa peptide (Q8WXD0 43-80) immobilised at 1 µg/mL in PBS on Maxisorp plates overnight at 4 °C; purified antibodies from 5 µg/mL, diluted 1:2 for 8 points, 1 h at room temperature; HRP secondary antibody, TMB
# Conditions: both partners purified
row,Binder,binding result
1,B1,no binding (tested: 5 µg/mL (highest antibody concentration))
2,B2,binds
3,B6,binds
